Experimental data as given in US20210388096A1 (Astellas, published 2021).

T1: human Fn14 on cells (NFkB/HEK293 reporter cells, A375 cells) (human, UniProt Q9NP84 28-129)
T1 sequence (looked up): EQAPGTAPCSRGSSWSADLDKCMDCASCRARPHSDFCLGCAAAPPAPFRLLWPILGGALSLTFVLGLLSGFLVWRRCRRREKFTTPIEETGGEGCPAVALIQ

T2: human Fn14-human Fc fusion protein (human, UniProt Q9NP84 28-79)
T2 construct: range 1-79; Purified from CHO-K1SV culture supernatant; coated on the ELISA plate
T2 sequence: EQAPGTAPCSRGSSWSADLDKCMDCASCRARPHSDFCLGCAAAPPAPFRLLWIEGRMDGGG


Key:
[1] = target: T1, human Fn14 on cells (NFkB/HEK293 …); experiment: cell-based or functional assay
[2] = target: T2, human Fn14-human Fc fusion protein; experiment: ELISA, Fn14-Fc fusion coated on plate, HRP anti-human kappa detection
Experimental: (§1) Binding activities of 4-1h and 4-1m acquired in Example 4 to a Fn14 protein were evaluated. The human Fn14-human Fc fusion protein and the mouse Fn14-mouse Fc fusion protein acquired in Example 1 were diluted in phosphate buffered saline (PBS) at 1 μg/mL and added to a MaxiSorp 384-well transparent plate (Nunc, 464718) at 15 μL/well. Incubation was performed overnight at 4° C. for Immobilization. On the next day, the solid phase liquid was removed, and washing was performed with a 0.05% Tween-20-containing Tris-buffered saline (TBS-T). PBS containing 20% Blocking One (Nacalai tesque, Inc., 03953-95) was added thereto at […]. The resultant was left at room temperature for 1 hour, and then washed with TBS-T. A dilution series of 4-1h or 4-1m acquired in Example 4 was prepared by dilution in 12 steps with a 4-fold common ratio from a maximum concentration of 30 μg/mL using TBS-T containing 5% Blocking One (hereinafter, referred to as a diluent), and added at 20 μL/well. […] Then, the reaction was stopped by adding a 2M sulfuric acid, and the absorbance at 450 nm was measured with SpectraMax Paradigm (Molecular Devices, LLC). The test was performed in duplicate, and EC₅₀ values were calculated by 4-parameter logistic curve fitting.

[3] = target: T3, mouse Fn14-mouse Fc fusion protein (mouse, UniProt Q9CR75 28-75); experiment: as above
T3 construct: range 1-75; Fn14 part cloned via EcoRI/EcoRV into the multicloning site of pFUSE-mIgG2B-Fc1; not shown: mouse Fc region: mIgG2B-Fc region of vector pFUSE-mIgG2B-Fc1 (InvivoGen)
Experimental: as §1

[4] = target: T2, human Fn14-human Fc fusion protein; experiment: ELISA, Fn14-Fc fusion coated on plate, HRP anti-mouse kappa detection
Experimental: as §1

[5] = target: T3, mouse Fn14-mouse Fc fusion protein; experiment: as above
Experimental: as §1

T3 sequence (Q9CR75 28-75 limits assumed): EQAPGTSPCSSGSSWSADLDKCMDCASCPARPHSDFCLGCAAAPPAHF

Row | IC50 (ng/mL), inhibition of Tweak-induced NFkB activation (luciferase reporter, NFkB/HEK293 cells), geometric mean of three trials [1] [ng/mL] | EC50 [2] [µg/mL] | EC50 [3] [µg/mL] | EC50 [4] [µg/mL] | EC50 [5] [µg/mL] | Binder
1 | 41.5 | 0.0304 | 0.0232 | – | – | fully humanized anti-human Fn14 antibody 4-1h (antibody, human IgG1, kappa, L234A L235A, V domains shown, most of the purified antibodies had pyroglutamylation at the N terminal of the heavy chain and deletion of lysine at the C terminal (Example 5), human kappa light chain; Expressed in CHO-K1SV cells; also called fully humanized antibody of 4-1) VH: QVQLQQWGAGLLKPSETLSLTCAVYGGSFSGYYWSWIRQPPGKGLEWIGEINHRGSTNSNPSLKSRDTISVDTSKNQFSLRLRSVTAADTAVYYCAREGISGSMGIYDYSGMDVWGQGTTVTVSS VL: not shown
2 | – | – | – | 0.0182 | 0.0165 | murinized anti-human Fn14 antibody 4-1m (antibody, mouse IgG2a, kappa, V domains shown, Framework regions of 4-1h partially substituted with mouse FR; mouse kappa light chain; also called murinized antibody of 4-1h) VH: DVQLQESGPGLVKPSQSLSLTCAVYGGSFSGYYWSWIRQFPGNKLEWMGEINHRGSTNSNPSLKSRISITVDTSKNQFFLQLNSVTTEDTATYYCAREGISGSMGIYDYSGMDVWGQGTLVTVSA VL: DIVMSQSPSSLAVSVGEKVTMSCKSRQSILYSSNNKNYLTWYQQKPGQSPKLLIYWASTRESGVPDRFTGSGSGTDFTLTISSVKAEDLAVYYCQQYYSTPYTFGSGTKLEIKR
